The results in this text go back to the RNAGym collection of RNA variant scans (doi:10.1073/pnas.2313332121).

B1: TPR t1 (parent)
chain: GACCAAUCUGCCCUCAGAGCUCGAGAACAUCUUCGGAUGCAGAGGAGGCAGGCUUCGGUGGCGCGAUAGCGCCAACGUCCUCAACCUCCAAUGCAUCCCACCACAUGAUGAUGCCUGAAGAGCCUUGGUUUUUUG

The data set covers variants of B1. The data set is described as follows: polymerase ribozyme fitness, log enrichment relative to wild type (log ratio); higher = more active; in vitro selection for triplet polymerase activity. Put shortly: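 Both subunits of a heterodimeric triplet polymerase ribozyme were given their own mutant library, built by PCR and transcribed. Each library was annealed with a biotinylated primer, the partner subunit and triplets, incubated frozen at −7 °C, and its extended constructs gel-excised, captured on streptavidin beads and amplified by RT-PCR, all in one round done in triplicate. Fitness is the logarithm of genotype enrichment relative to wild-type enrichment, with replicates averaged by inverse-variance weighting. That logarithm is base 2, and Illumina-sequenced genotypes needed ≥10 input reads and ≥1 read per output.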
Consider A18C U38A C115A U116G C123U U126A, for which the “polymerase ribozyme fitness (log ratio)” value is -4.52.
G17A C70U G120U: the “polymerase ribozyme fitness (log ratio)” value is -2.58.
Then G17C G113A, with -6.34.
The value for G17A G36C was -3.9.
For G17U U67G C73A U78C G93U C98G U116C, the “polymerase ribozyme fitness (log ratio)” value was -6.28.
Then G17A C98U, with -5.09.
Then G17U U96G C98A G113U, with -6.9.
The value for A18C U55C was -3.52; that for A18C U55G was -1.99; that for A16U G61C U130G was -2.75.
Turning to A18C C89G, the “polymerase ribozyme fitness (log ratio)” value is -2.48.
Then G17C C72U C101A C115A C123A, with -5.23; and G17U C49A G69C U109C C115A, with -7.12.
Then G17U U87G, with -2.25.
Then G17U U87A, with -2.81.
For the variant A18G A43C U54A, the “polymerase ribozyme fitness (log ratio)” value is -4.06.
The value for G17A G52U was -4.1.
The value for G17A G44A was -3.41.
Then G17U A29G U55A, with -4.06.
For A18C G52A G61A A118G, the “polymerase ribozyme fitness (log ratio)” value is -2.74.
The value for A16U U55C was -2.11; that for G17U C49U C115U C123G U130A was -4.8; that for A18C G71A C88U G93C was -4.58.
The value for G17U A111G U133G was -2.2.
As for G17A A83G, the “polymerase ribozyme fitness (log ratio)” value is -3.95.
The value for G17A C72U A90U A121G was 0.0637; that for G17U C89G was -2.98.
Then G17C A83G U116G, with -5.65.
The value for A18C G61C C89G U116C C124A was -2.98; that for A18G A43C C53A G63U was -5.8; that for A18C G69C was -4.31.
Take G17U C70G C82G C124A U131G: the “polymerase ribozyme fitness (log ratio)” value is -4.66.
As to A18C A111U, the “polymerase ribozyme fitness (log ratio)” value is -5.16.
The value for A18C A111G was 0.883.
Turning to G17U C62A, the “polymerase ribozyme fitness (log ratio)” value was -2.83.
Then G17U U96C, with -3.71; and A18G A68U U87G U109A, with -5.24.
The value for G17U G117A U129A was -4.12; that for G17U C40G C99G A111U was -6.82; that for A18C A37G C62G was -6.59.
For G17C G69U G120U G128A, the “polymerase ribozyme fitness (log ratio)” value is -2.65.
The value for G17A G71C was -3.64; that for G17U G57A C101A G107U G120C G127A U132C was -5.32.
On to G17A C123A, for which the “polymerase ribozyme fitness (log ratio)” value is -3.08.
Then A18C G35U A103U C115U, with -4.68.
Then G17U C114A, with -5.05; and G17A C34U C98U C124A, with -5.98.
The value for G17A was -2.59.
For the variant G17C, the “polymerase ribozyme fitness (log ratio)” value is -3.67.
For the variant G17U, the “polymerase ribozyme fitness (log ratio)” value is -2.29.
For G17A U55A C72A A84G, the “polymerase ribozyme fitness (log ratio)” value is -5.99.
The value for G17U G63A U112A U125G was -3.29.
A18C C34U U112A A119G: the “polymerase ribozyme fitness (log ratio)” value was -6.08.
The value for G17A C115U U116C was -6.73; that for G17A U59C G69U G120U was -2.26.
Then G17C C73A U125A, with -5.15; and G17C G36C C114G U131G, with -4.72.
Then G17U C73G, with -2.39; and G17A G69U, with -1.14.
For the variant G17C A83C A119G, the “polymerase ribozyme fitness (log ratio)” value is -1.01.
Then A18C U112G, with -3; and G17C G120C, with -1.58; and A18C C56U, with -2.56.
As to A18C C56A, the “polymerase ribozyme fitness (log ratio)” value was -3.08.
The value for G17U G45C C62U was -4.56.
Then A18C C49G C89G C123U, with -2.67; and A18C A95U, with -3.68.
The value for A18C G52A C72U was -2.39; that for G17U U96A A119G was -1.01; that for G17U G61A C88U C104A U133A was -4.19.
As to A16U G69U C89U, the “polymerase ribozyme fitness (log ratio)” value was -1.47.
With A18C C40A U78G C82G A121U U130A, the “polymerase ribozyme fitness (log ratio)” value was -3.87.
Then G17A G122A, with -3.37; and A18G A105G U112C G117C U132A, with -3.97; and G17A C56A G93U, with -4.99.
The value for A18C A43U G63A U81A was -6.15; that for A16U G63U G113U was -5.93.
The value for G17U C49A U126C was -3.28; that for A16U G61U G135U was -1.98; that for G17A C73U was -2.84.
As to G17C U55G C56A G63C G77U G113A, the “polymerase ribozyme fitness (log ratio)” value is -5.71.
The value for A18C U116A was -3.4.
The value for G17U U78C was -2.6; that for G17U C49A C56A was -4.3.
The value for A18C C20A U54A G63C U96A was -4.09; that for G17A C101G was -5.5; that for A18C C20A U55C G57A G63A was -4.91.
With G17U A118U, the “polymerase ribozyme fitness (log ratio)” value was -3.56.
The value for A18C G36C G57U was -4.25.
The value for A16U G93A U133A was -2.82; that for A18C U54G C123G was -0.39.
The value for G17U C28U G39A G110A was -2.46; that for G17C C104A was -6.53.
Consider G17C C28U C85A G110A G120C, for which the “polymerase ribozyme fitness (log ratio)” value was -2.19.
Then G17A G113A, with -3.43; and G17A G113U, with -3.81; and A18C A74U, with -4.85.
The value for G17C C123A was -2.92.
Consider G17A G63U, for which the “polymerase ribozyme fitness (log ratio)” value was -3.9.
Then G17U G71U U81C C89G A119G G128A, with -4.58; and G17U C72G, with -2.35; and A18C G48U G57U, with -2.85.
The value for G17A U96C was -3.36.
In the case of A16U G45A C70U A118U, the “polymerase ribozyme fitness (log ratio)” value is -2.
For the variant A16U U112A, the “polymerase ribozyme fitness (log ratio)” value was determined as 0.0459.
Then G17A C72G C124G, with -0.994.
Then G17A G48C C49G A84U C124U, with -2.52; and G17C U21G G60C C79U G117A C124G, with -5.63.
Then A18C C40G C70A A83G C94U C115U U129G, with -5.58; and A16U G69U G77A U116A, with -1.32; and G17U A37U G47U, with -5.29.
Regarding G17C A18G G42U C80U U112C, the “polymerase ribozyme fitness (log ratio)” value was -0.371.
Then G17C U78C C89A U96A, with -4.94.
The value for G17A C28U C62U U109A U116G was -5.8; that for A16U G47U G52U C115U G117C was -5.71; that for A18C A50C G58A C97U was -5.7.
As to A18C C22G G63A U130G, the “polymerase ribozyme fitness (log ratio)” value is -5.14.
Then G17U C22G U33G G61A C115A, with -4.69; and G17C G57A C124U, with -5.29.
Then A18C A83G A105G C115U, with -3.42.
Then G17C G61U C114A, with -5.45; and A18C A83C, with -1.95.
Regarding G17U U87A U106A G128A, the “polymerase ribozyme fitness (log ratio)” value was -3.83.
Consider G17U C101U, for which the “polymerase ribozyme fitness (log ratio)” value was -2.53.
Then G17C A84U, with -4.87; and G17U C20A G61U U87A, with -4.07; and G17C U106A, with -4.68.
Then G17A C22A, with -5.66; and G17C G60A, with -4.31; and G17C G60C, with -4.24.
Then G17U G52C G77U C123U, with -2.34; and G17A C88U U96C, with -3.71; and G17A U55A C72A, with -3.74.
Take A16U U106A: the “polymerase ribozyme fitness (log ratio)” value was -2.08.
Then G17A A18C C86G, with -3.63; and G17C C20G G47C C72U G113A A119C, with -7.02.
With G17U C34A G63A C79U C115A, the “polymerase ribozyme fitness (log ratio)” value was -3.37.
A16U U32A A46U A66C A103C A111G: the “polymerase ribozyme fitness (log ratio)” value was -7.56.
The value for G17U U38A G71C U125A was -4.76; that for G17A G48A A95C U112A C114A was -6.73.
The value for A18C C101A was -3.03; that for A16U G127U was -2.81.
Then G17C C22G G61U, with -6.24.
Consider G17U C114G U132A, for which the “polymerase ribozyme fitness (log ratio)” value was -5.35.
Turning to A18C C89G C114A U130A, the “polymerase ribozyme fitness (log ratio)” value was -3.2.
Then G17A G39A C79U G110C, with -7.24; and A16U G61A, with -0.972; and G17U U55A U112A C114G G120C, with -5.87.
Regarding G17C C56G U96A, the “polymerase ribozyme fitness (log ratio)” value was -5.36.
For the variant G17U C124G G128C, the “polymerase ribozyme fitness (log ratio)” value was -1.84.
Then G17A G61U C104U A111G, with -2.95.
The value for G17U G39U G110U was -4.99.
On to G17U A84U, for which the “polymerase ribozyme fitness (log ratio)” value is -2.44.
The value for G17U C62U C73U C101A U130C was -3.73; that for A18C G61C U112G was -6.42; that for G17C G69U was -2.68.
The value for A16U G47U G69C was -3.2.
In the case of G17U G71A A84U U96G G128U U130C, the “polymerase ribozyme fitness (log ratio)” value was -5.57.
Then A18C C73A, with -2.69; and A18C C73U, with -2.53; and G17U A26G G71A C94A U112C C115A, with -2.54.
The value for G17U U116A G120A U129G was -5.36; that for A18C G71A was -4.91.
The value for G17C G25U G47C G120A G127A was -7.42; that for A16U U59G was -1.3.
In the case of A16U U59A, the “polymerase ribozyme fitness (log ratio)” value stood at 0.971.
The value for A18C A24G was -3.95.
